# Measured values as given in paper PMC10077475, “DG9-conjugated morpholino rescues phenotype in SMA mice by reaching the CNS via a subcutaneous administration” (JCI Insight, 2023).
# Like-named read-outs stand apart in the source and are kept apart here.
# Assays:
# [1] = Hybridization-based ELISA, PMO concentration in tissues of severe SMA mice; type: in vivo; conditions: mouse, sc, 40 mg/kg s.c. at PD0, PD7 mice
# Experimental: To determine the effects of DG9 peptide in increasing PMO uptake, we evaluated the biodistribution of unconjugated PMO and DG9-PMO in the peripheral and CNS tissues. We used a well-established hybridization-based ELISA designed specifically to detect the PMO to compare the concentration of DG9-PMO and unconjugated PMO in the tissues of treated PD7 mice ([51]).
# ELISA was performed as described previously ([51], [69]). In brief, protein was extracted from frozen tissue sections (~20 μm) using RIPA buffer with cOmplete, Mini, EDTA-free protease inhibitor cocktail. The probes (Integrated DNA Technologies) were designed complementary to the PMO sequence with phosphorothioated backbones at the 5′ and 3′ ends. The 5′ and 3′ ends were labeled with digoxigenin and biotin, respectively. The tissue lysates (0.02 mg/mL protein concentration) were pretreated with 2.5 mg/mL trypsin containing 10 mM CaCl2 at 37°C overnight to digest the DG9 peptide. The probes were added to the samples and allowed to hybridize at 37°C for 30 minutes. Following the probe-PMO hybridization, the hybridized mixtures were added to Pierce NeutrAvidin Coated 96-Well Plates, Black (Thermo Fisher Scientific), to allow avidin-biotin interaction between the plate and the probes. The unhybridized probes were digested using micrococcal nuclease enzyme at 0.1 gel unit/μL (New England Biolabs). This was followed by the addition of an anti-digoxigenin antibody conjugated with ALP 1:5,000 (11093274910, Roche Applied Sciences). Attophos AP Fluorescent Substrate (Promega) was added to the PMO/DG9-PMO probes, and fluorescence was detected at 444 nm excitation and 555 nm emission by using a monochromator SpectraMax M3 plate reader (Molecular Devices).
# [2] = test system: severe SMA mouse model; assay: Body weight of SMA mice at PD7; type: in vivo
# Experimental: Injections were carried out using a 30-gauge Hamilton syringe. SMA mice identified following genotyping were randomly assigned to a treatment group. The researcher injecting mice was blinded to the treatment. SMA neonates were subcutaneously injected with 40 or 80 mg/kg of AOs at PD0, while NT and heterozygous control mice were injected with saline (n = 10–49) per group. Tissues including the quadriceps muscle, liver, kidney, spleen, diaphragm, intercostal muscle, heart, brain, and spinal cord were collected and snap-frozen in dry ice– cooled isopentane, then subsequently stored at –80°C.
# [3] = test system: severe SMA mouse model; assay: Hind limb suspension (HLS) assay (tube test); type: in vivo; conditions: 40 mg/kg s.c. at PD0, PD2–PD12
# Source text: To evaluate the effects of systemic DG9-PMO treatment on muscle strength and the function of motor neurons, we used several functional tests and compared motor function in the treated and NT mice at various time points. We performed the hind limb suspension (HLS) assay and the righting reflex test during the early weeks of life. […] It should be noted that the results beyond PD12 are biased, as only the healthiest unconjugated PMO–, MOE-, and R6G-PMO–treated mice survived to these time points.
# This test was performed on neonatal mice PD2–PD12 as described in Treat NMD protocol SMA_M.2.2.001 ([72]). Briefly, neonatal mice were suspended on their hind limbs from a tube. They were scored based on the position of the hind limbs and their latency to fall was recorded with a 30-second cutoff. Each neonatal pup underwent 3 trials, with a 15-minute break between each trial. The average score was noted by the observer under a blinded test protocol.
# [4] = Toxicology: serum markers, urinary KIM-1, liver and kidney histology; type: in vivo, mouse
# Experimental: To further elucidate the possibility of long-term toxicity, we collected serum from the Hets and AO-treated mice at PD30–PD35. A toxicological evaluation was performed on the levels of alkaline phosphatase (ALP), alanine transaminase (ALT), aspartate aminotransferase (AST), creatine kinase (CK), creatinine, total bilirubin, total protein, albumin, globulin, and gamma-glutamyl transferase (GGT). […] We also performed a qualitative histological analysis of the liver and kidney and found no signs of observable toxicity (Supplemental Figure 9D). We also analyzed levels of urinary kidney injury marker-1 (KIM-1) following DG9-PMO treatment at both 40 and 80 mg/kg.
# Blood was collected from the mice around PD30–PD40 (n = 4–10 per group) during the dissection procedure. The blood was left at RT for 30 minutes and centrifuged at 2,000 rcf. The resulting supernatant (serum) was transferred to a new 1.5 mL tube and stored at –20 °C. The serum samples were analyzed by IDEXX BioAnalytics. The evaluation was performed on a standard set of toxicity markers: glucose, total bilirubin, blood urea nitrogen, CK, creatinine, ALP, ALT, AST, GGT, globulin, albumin, and total protein. Urinary KIM-1 analysis was performed from urine collected from mice at PD30. The collected urine was centrifuged at 2,000 rcf at 4°C. […]
# [5] = ELISA, PMO uptake in mild SMA model (F0 mice) injected at PD5; type: in vivo, mouse; conditions: 40 mg/kg s.c. at PD5, tissues at PD7, ELISA
# Source text: To target the motor neurons in the CNS via systemic administration, AOs need to cross the BBB in patients with SMA. For this study, we used a milder SMA model (F0) (Smn^–/– SMN2^+/+) with 4 SMN2 copies obtained from Jackson Laboratory (JAX 005058) that are viable, are fertile, and have shortened, thick tails since severe SMA model mice have a median survival of only 8 days, making it difficult to evaluate the treatment efficacy when the BBB is mature. […] To determine the ability of DG9-PMO to reach the CNS, we subcutaneously injected 40 mg/kg or 80 mg/kg fluorescently tagged DG9-PMO into F0 mice at PD0 or PD5. […] We also performed an ELISA to examine the biodistribution of unconjugated PMO and DG9-PMO at PD7.
# ELISA was performed as described previously ([51], [69]). In brief, protein was extracted from frozen tissue sections (~20 μm) using RIPA buffer with cOmplete, Mini, EDTA-free protease inhibitor cocktail. The probes (Integrated DNA Technologies) were designed complementary to the PMO sequence with phosphorothioated backbones at the 5′ and 3′ ends. The 5′ and 3′ ends were labeled with digoxigenin and biotin, respectively. […] Attophos AP Fluorescent Substrate (Promega) was added to the PMO/DG9-PMO probes, and fluorescence was detected at 444 nm excitation and 555 nm emission by using a monochromator SpectraMax M3 plate reader (Molecular Devices).
smiles,measurement,setting,value
CC(=O)N[C@@H](Cc1ccc(O)cc1)C(=O)N[C@@H](C)C(=O)N[C@H](CCCNC(=N)N)C(=O)N[C@H](C(=O)N[C@@H](CCCNC(=N)N)C(=O)N[C@@H](CCCNC(=N)N)C(=O)N[C@H](CCCNC(=N)N)C(=O)NCC(=O)N1CCC[C@H]1C(=O)N[C@@H](CCCNC(=N)N)C(=O)NCC(=O)N[C@@H](Cc1ccc(O)cc1)C(=O)N[C@@H](C)C(=O)N[C@H](CCCNC(=N)N)C(=O)N[C@H](C(=O)N[C@@H](CCCNC(=N)N)C(=O)N[C@@H](CCCNC(=N)N)C(=O)N[C@H](CCCNC(=N)N)C(=O)NCC(=O)N1CCC[C@H]1C(=O)N[C@@H](CCCNC(=N)N)C(=O)N[C@H](CCCNC(=N)N)C(=O)N1C[C@@H](COP(=O)(N(C)C)N2C[C@@H](COP(=O)(N(C)C)N3C[C@@H](COP(=O)(N(C)C)N4C[C@@H](COP(=O)(N(C)C)N5C[C@@H](COP(=O)(N(C)C)N6C[C@@H](COP(=O)(N(C)C)N7C[C@@H](COP(=O)(N(C)C)N8C[C@@H](COP(=O)(N(C)C)N9C[C@@H](COP(=O)(N(C)C)N%10C[C@@H](COP(=O)(N(C)C)N%11C[C@@H](COP(=O)(N(C)C)N%12C[C@@H](COP(=O)(N(C)C)N%13C[C@@H](COP(=O)(N(C)C)N%14C[C@@H](COP(=O)(N(C)C)N%15C[C@@H](COP(=O)(N(C)C)N%16C[C@@H](COP(=O)(N(C)C)N%17C[C@@H](COP(=O)(N(C)C)N%18C[C@@H](COP(=O)(N(C)C)N%19CCC(C(N)=O)CC%19)O[C@@H](n%19cc(C)c(=O)[nH]c%19=O)C%18)O[C@@H](n%18ccc(N)nc%18=O)C%17)O[C@@H](n%17cnc%18c(N)ncnc%18%17)C%16)O[C@@H](n%16ccc(N)nc%16=O)C%15)O[C@@H](n%15cc(C)c(=O)[nH]c%15=O)C%14)O[C@@H](n%14cc(C)c(=O)[nH]c%14=O)C%13)O[C@@H](n%13cc(C)c(=O)[nH]c%13=O)C%12)O[C@@H](n%12ccc(N)nc%12=O)C%11)O[C@@H](n%11cnc%12c(N)ncnc%12%11)C%10)O[C@@H](n%10cc(C)c(=O)[nH]c%10=O)C9)O[C@@H](n9cnc%10c(N)ncnc%109)C8)O[C@@H](n8cnc9c(N)ncnc98)C7)O[C@@H](n7cc(C)c(=O)[nH]c7=O)C6)O[C@@H](n6cnc7c(=O)[nH]c(N)nc76)C5)O[C@@H](n5ccc(N)nc5=O)C4)O[C@@H](n4cc(C)c(=O)[nH]c4=O)C3)O[C@@H](n3cnc4c(=O)[nH]c(N)nc43)C2)O[C@@H](n2cnc3c(=O)[nH]c(N)nc32)C1)C(C)C)C(C)C (stereo partly drawn) [DG9-PMO],level at time molar at 7 days after dosing (PD7),"[1]; brain, n = 5, read-out: average AO detection, brain",8.36 nM
same,level at time molar at 7 days after dosing (PD7),"[1]; heart, n = 4, read-out: average AO detection, heart",8.89 nM
same,level at time molar at 7 days after dosing (PD7),"[1]; kidney, n = 6, read-out: average AO detection, kidney",20000 nM
same,level at time molar at 7 days after dosing (PD7),"[1]; liver, n = 5, read-out: average AO detection, liver",200000 nM
same,level at time molar at 7 days after dosing (PD7),"[1]; quadriceps muscle, n = 5, read-out: average AO detection, quadriceps muscle",12.2 nM
same,level at time molar at 7 days after dosing (PD7),"[1]; spinal cord, n = 4, read-out: average AO detection, spinal cord",13.9 nM
same,body weight at PD7 versus R6G-PMO,[2]; 40 mg/kg s.c. at PD0,weighed significantly more than R6G-PMO–treated neonates
same,body weight at PD7,[2]; both doses (40 and 80 mg/kg) s.c. at PD0,significantly heavier than the NT and unconjugated PMO–treated littermates
same,hind limb strength (HLS score),[3],hind limb strength comparable to the Hets at PD12
same,urinary kidney injury marker-1 (KIM-1) compared to the Hets,"[4]; 40 and 80 mg/kg, urine at PD30, sandwich ELISA",no apparent increase
same,toxicity on the liver and kidney,[4]; as high as 80 mg/kg dose,no apparent toxicity
same,"uptake of PMO versus unconjugated PMO, mild SMA model (F0)",[5],significantly increased the uptake of PMO in the CNS and peripheral tissues
